In patent US20250339569A1 (3B PHARMACEUTICALS, published 2025):
Starred links: 1 amine or outer side, 2 acyl side, 3 side chain; linkers in the order of their positions; H or OH if unused. Positions of bridges follow the written chain, without caps; N, C: chain ends. Non-standard residues stand in square brackets, D forms with d. Primed or numbered codes have the meaning given here. *: point of attachment. Aph(2Ta5Sa)″ = 4-amino-L-phenylalanine, ring amine acylated by 5-sulfamoyl-thiophene-2-carboxylic acid, NS(=O)(=O)c1ccc(C(=O)Nc2ccc(C[C@H](N[*:1])C(=O)[*:2])cc2)s1; Af3(2Ta5Sa) = 3-amino-L-phenylalanine, ring amine acylated by 5-sulfamoyl-thiophene-2-carboxylic acid, NS(=O)(=O)c1ccc(C(=O)Nc2cccc(C[C@H](N[*:1])C(=O)[*:2])c2)s1; Af3(3Ta5Sa) = 3-aminophenylalanine, ring amine acylated with 5-sulfamoylthiophene-3-carboxylic acid, NS(=O)(=O)c1cc(C(=O)Nc2cccc(C[C@H](N[*:1])C(=O)[*:2])c2)cs1; Aph(2Ta5Sa) = 4-aminophenylalanine, ring amine acylated with 5-sulfamoylthiophene-2-carboxylic acid, NS(=O)(=O)c1ccc(C(=O)Nc2ccc(C[C@H](N[*:1])C(=O)[*:2])cc2)s1; Aph(3Ta5Sa) = 4-aminophenylalanine, ring amine acylated with 5-sulfamoylthiophene-3-carboxylic acid, NS(=O)(=O)c1cc(C(=O)Nc2ccc(C[C@H](N[*:1])C(=O)[*:2])cc2)cs1; Af3(3MSaBz) = 3-aminophenylalanine, ring amine acylated with 3-(sulfamoylmethyl)benzoic acid, NS(=O)(=O)Cc1cccc(C(=O)Nc2cccc(C[C@H](N[*:1])C(=O)[*:2])c2)c1; Af3(HO-Glutar) = 3-aminophenylalanine acylated on the ring amine with glutaric acid (free COOH), O=C(CCCC(=O)[*:3])Nc1cccc(C[C@H](N[*:1])C(=O)[*:2])c1; Af3(3SaBz) = 3-aminophenylalanine, ring amine acylated with 3-sulfamoylbenzoic acid, NS(=O)(=O)c1cccc(C(=O)Nc2cccc(C[C@H](N[*:1])C(=O)[*:2])c2)c1; Af3(4SaBz) = 3-aminophenylalanine, ring amine acylated with 4-sulfamoylbenzoic acid, NS(=O)(=O)c1ccc(C(=O)Nc2cccc(C[C@H](N[*:1])C(=O)[*:2])c2)cc1; Af3(OPyAc) = 3-aminophenylalanine, ring amine acylated with 2-(2-oxopyridin-1-yl)acetic acid, O=C(Cn1ccccc1=O)Nc1cccc(C[C@H](N[*:1])C(=O)[*:2])c1; Aph(3SaBz) = 4-aminophenylalanine, ring amine acylated with 3-sulfamoylbenzoic acid, NS(=O)(=O)c1cccc(C(=O)Nc2ccc(C[C@H](N[*:1])C(=O)[*:2])cc2)c1; Aph(SaPr)(4) = 4-aminophenylalanine, ring amine acylated with 3-sulfamoylpropanoic acid, NS(=O)(=O)CCC(=O)Nc1ccc(C[C@H](N[*:1])C(=O)[*:2])cc1; Aph(SaPr) = 4-amino-L-phenylalanine, ring amine acylated by 3-sulfamoylpropanoic acid, NS(=O)(=O)CCC(=O)Nc1ccc(C[C@H](N[*:1])C(=O)[*:2])cc1; Af3(SaPr) = 3-aminophenylalanine, ring amine acylated with 3-sulfamoylpropanoic acid, NS(=O)(=O)CCC(=O)Nc1cccc(C[C@H](N[*:1])C(=O)[*:2])c1; Af3(HO-Succinyl)″ = 3-aminophenylalanine, ring amine acylated with succinic acid, O=C(CCC(=O)[*:3])Nc1cccc(C[C@H](N[*:1])C(=O)[*:2])c1; Phe(3-NHCO(CH2)3SO2NH2) = N[C@@H](Cc1cccc(NC(=O)CCCS(N)(=O)=O)c1)C(=O)O; APAc″ = 2-(4-(amino)piperidin-1-yl)acetic acid, NC1CCN(CC(=O)*)CC1; DOTA = O=C(O)CN1CCN(CC(=O)O)CCN(CC(=O)*)CCN(CC(=O)O)CC1; Phe(3,4-Cl2) = N[C@@H](Cc1ccc(Cl)c(Cl)c1)C(=O)O; Phe(3-CF3) = N[C@@H](Cc1cccc(C(F)(F)F)c1)C(=O)O; mXylylene = c1cc(C[*:1])cc(C[*:2])c1; N4AzPhCONH2 = not defined here; PPAc″ = not defined here; APAc = not defined here; Dap = NC[C@H](N)C(=O)O

Key:
[1] = molecular target: T1, Fc-fusion protein of human carbonic anhydrase IX (human, UniProt Q16790 38-414); assay: SPR, captured hCAIX-Fc; t1/2 category B: 5.1-15.0 min
Description: (§1) Stock solutions of test compounds were prepared by dissolving each compound in DMSO. DMSO stock solution were diluted 1:1000 in Running Buffer without DMSO. […] SPR binding analyses were performed in Single Cycle Kinetic (SCK) mode at 25° C.
(§2) For each test compound, SPR raw data in the form of resonance units (RU) were plotted as sensorgrams using the Biacore™ T200 control software. The signal from the blank sensorgram was subtracted from that of the test compound sensorgram (blank corrected). The blank corrected sensorgram was corrected for baseline drift by subtracting the sensorgram of a SCK run without the test compound (running buffer only). […] Raw data and fit results were imported as text files in IDBS. The pKD value (negative decadic logarithm of dissociation constant) was calculated in the IDBS excel template.

[2] = molecular target: T2, human carbonic anhydrase IX (CAIX) (human, UniProt Q16790 38-459); assay: FACS competition, HT-29 cells, tracer 3BP-4149; pIC50 category A: >8.0
Description: (§3) CAIX-expressing human HT-29 colorectal cancer cells (DSMZ, RRID: CVCL_0320) were cultured in McCoys's 5A modified medium (Biochrom, #F1015) including 10% fetal calf serum (FCS), 2 mM L-glutamine, 100 U/ml penicillin and 100 μg/mL streptomycin. Cells were detached with Accutase (Biolegend, #423201) and washed in FACS buffer (PBS including 1% FCS). Cells were diluted in FACS buffer to a final concentration of 500.000 cells per ml. 200 μL of the cell suspension were transferred to a u-shaped non-binding 96-well plate (Greiner) and cells were washed in ice-cold FACS buffer.
(§4) When biotinylated compounds were used an additional incubation step with 1 μg/mL APC-Streptavidin (Miltenyi; #130-106-791) in 50 μL FACS buffer for 30 minutes on ice was performed.
(§5) Cells were washed twice with ice-cold FACS buffer and analyzed in an Attune NxT flow cytometer (Thermo Fisher). Median fluorescence intensities (MFI) of the APC/Cy5-channel were calculated by Attune NxT software.

[3] = molecular target: T1, Fc-fusion protein of human carbonic …; assay: SPR, captured hCAIX-Fc; pKD category A: >8.0
[4] = molecular target: T1, Fc-fusion protein of human carbonic …; assay: SPR, captured hCAIX-Fc; t1/2 category A: >15.0 min
Description: as §1, §2

[5] = molecular target: T2, human carbonic anhydrase IX (CAIX); assay: FACS competition, HT-29 cells, tracer 3BP-4149; pIC50 category B: 7.1-8.0
Description: as §3, §4, §5

## {DOTA-APAc}-VDCE[dP]D[Phe(3,4-Cl2)]LTW[Dap]C-NH2 (lactam 2-11; linker 3-12 via mXylylene; reading uncertain) [3BP-4439]
[1]
  t1/2 (half-life of the complex, SPR): 5.1 to 15 min
[2]
  pIC50: > 8 pic50
[3]
  pKD: > 8 pkd

B1: 3BP-4488 (peptide)
peptide: {DOTA}-DCE[dP]D[Phe(3-NHCO(CH2)3SO2NH2)]LTW[Dap]C-NH2
modifications: lactam 1-10; linker 2-11 via mXylylene
SMILES: CC(C)C[C@@H]1NC(=O)[C@H](Cc2cccc(NC(=O)CCCS(N)(=O)=O)c2)NC(=O)[C@H](CC(=O)O)NC(=O)[C@H]2CCCN2C(=O)[C@H](CCC(=O)O)NC(=O)[C@@H]2CSCc3cccc(c3)CSC[C@@H](C(N)=O)NC(=O)[C@H](CNC(=O)C[C@H](NC(=O)CN3CCN(CC(=O)O)CCN(CC(=O)O)CCN(CC(=O)O)CC3)C(=O)N2)NC(=O)[C@H](Cc2c[nH]c3ccccc23)NC(=O)[C@H]([C@@H](C)O)NC1=O
[2]
  pIC50: > 8 pic50
[3]
  pKD: > 8 pkd
[4]
  t1/2 (half-life of the complex, SPR): > 15 min

## {DOTA-PPAc″}-YCE[dP]D[Aph(2Ta5Sa)″]LTWSC-NH2 (linker 2-11 via mXylylene; reading uncertain) [3BP-4457]
[1]
  t1/2 (half-life of the complex, SPR): 5.1 to 15 min
[2]
  pIC50: > 8 pic50
[3]
  pKD: > 8 pkd

## {DOTA-APAc}-VYCE[dP]D[Aph(3Ta5Sa)]LTWSC-NH2 (linker 3-12 via mXylylene; reading uncertain) [3BP-4401]
[2]
  pIC50: > 8 pic50
[3]
  pKD: > 8 pkd
[4]
  t1/2 (half-life of the complex, SPR): > 15 min

## {DOTA-APAc}-VYCE[dP]D[Af3(OPyAc)]LTWSC-NH2 (linker 3-12 via mXylylene; reading uncertain) [3BP-4370]
[5]
  pIC50: 7.1 to 8 pic50

## {DOTA-APAc}-VYCE[dP]D[Aph(SaPr)(4)]LTWSC-NH2 (linker 3-12 via mXylylene; reading uncertain) [3BP-4400]
[2]
  pIC50: > 8 pic50
[3]
  pKD: > 8 pkd
[4]
  t1/2 (half-life of the complex, SPR): > 15 min

## {DOTA-APAc}-VYCE[dP]D[Af3(2Ta5Sa)]LTWSC-NH2 (linker 3-12 via mXylylene; reading uncertain) [3BP-4413]
[2]
  pIC50: > 8 pic50
[3]
  pKD: > 8 pkd
[4]
  t1/2 (half-life of the complex, SPR): > 15 min

## {DOTA-APAc}-VYCE[dP]D[Af3(4SaBz)]LTWSC-NH2 (linker 3-12 via mXylylene; reading uncertain) [3BP-4405]
[2]
  pIC50: > 8 pic50
[3]
  pKD: > 8 pkd
[4]
  t1/2 (half-life of the complex, SPR): > 15 min

B2: 3BP-4489 (peptide)
peptide: {DOTA}-DCE[dP]D[Aph(SaPr)]LTW[Dap]C-NH2
modifications: lactam 1-10; linker 2-11 via mXylylene
SMILES: CC(C)C[C@@H]1NC(=O)[C@H](Cc2ccc(NC(=O)CCS(N)(=O)=O)cc2)NC(=O)[C@H](CC(=O)O)NC(=O)[C@H]2CCCN2C(=O)[C@H](CCC(=O)O)NC(=O)[C@@H]2CSCc3cccc(c3)CSC[C@@H](C(N)=O)NC(=O)[C@H](CNC(=O)C[C@H](NC(=O)CN3CCN(CC(=O)O)CCN(CC(=O)O)CCN(CC(=O)O)CC3)C(=O)N2)NC(=O)[C@H](Cc2c[nH]c3ccccc23)NC(=O)[C@H]([C@@H](C)O)NC1=O
[2]
  pIC50: > 8 pic50
[3]
  pKD: > 8 pkd
[4]
  t1/2 (half-life of the complex, SPR): > 15 min

## {DOTA-APAc}-VYCE[dP]D[Af3(3MSaBz)]LTWSC-NH2 (linker 3-12 via mXylylene; reading uncertain) [3BP-4406]
[2]
  pIC50: > 8 pic50
[3]
  pKD: > 8 pkd
[4]
  t1/2 (half-life of the complex, SPR): > 15 min

## {DOTA-APAc}-VYCE[dP]D[Aph(3SaBz)]LTWSC-NH2 (linker 3-12 via mXylylene; reading uncertain) [3BP-4408]
[2]
  pIC50: > 8 pic50
[3]
  pKD: > 8 pkd
[4]
  t1/2 (half-life of the complex, SPR): > 15 min

## {DOTA-APAc″}-VYCE[dP]D[Af3(HO-Glutar)]LTWSC-NH2 (linker 3-12 via mXylylene) [3BP-4367]
[2]
  pIC50: > 8 pic50
[3]
  pKD: > 8 pkd
[4]
  t1/2 (half-life of the complex, SPR): > 15 min

## {DOTA-APAc}-VYCE[dP]D[Af3(3SaBz)]LTWSC-NH2 (linker 3-12 via mXylylene; reading uncertain) [3BP-4409]
[2]
  pIC50: > 8 pic50
[3]
  pKD: > 8 pkd
[4]
  t1/2 (half-life of the complex, SPR): > 15 min

## {DOTA-APAc}-VYCE[dP]D[Af3(SaPr)]LTWSC-NH2 (linker 3-12 via mXylylene; reading uncertain) [3BP-4407]
[2]
  pIC50: > 8 pic50
[3]
  pKD: > 8 pkd
[4]
  t1/2 (half-life of the complex, SPR): > 15 min

## {DOTA-APAc}-VDCE[dP]D[Phe(3-CF3)]LTW[Dap]C-NH2 (lactam 2-11; linker 3-12 via mXylylene; reading uncertain) [3BP-4440]
[1]
  t1/2 (half-life of the complex, SPR): 5.1 to 15 min
[2]
  pIC50: > 8 pic50
[3]
  pKD: > 8 pkd

## {DOTA-APAc}-VDCE[dP]D[Phe(3-NHCO(CH2)3SO2NH2)]LTW[Dap]C-NH2 (lactam 2-11; linker 3-12 via mXylylene; reading uncertain) [3BP-4445]
[2]
  pIC50: > 8 pic50
[3]
  pKD: > 8 pkd
[4]
  t1/2 (half-life of the complex, SPR): > 15 min

## {DOTA-APAc}-VYCE[dP]D[Aph(2Ta5Sa)]LTWSC-NH2 (linker 3-12 via mXylylene; reading uncertain) [3BP-4402]
[2]
  pIC50: > 8 pic50
[3]
  pKD: > 8 pkd
[4]
  t1/2 (half-life of the complex, SPR): > 15 min

## {DOTA-APAc}-VDCE[dP]D[Af3(HO-Succinyl)″]LTW[Dap]C-NH2 (lactam 2-11; linker 3-12 via mXylylene; reading uncertain) [3BP-4377]
[2]
  pIC50: > 8 pic50
[3]
  pKD: > 8 pkd
[4]
  t1/2 (half-life of the complex, SPR): > 15 min

## {DOTA-APAc}-VYCE[dP]D[Af3(3Ta5Sa)]LTWSC-NH2 (linker 3-12 via mXylylene; reading uncertain) [3BP-4412]
[2]
  pIC50: > 8 pic50
[3]
  pKD: > 8 pkd
[4]
  t1/2 (half-life of the complex, SPR): > 15 min

## {DOTA-APAc}-VYCE[dP]E(N4AzPhCONH2)WLTWSC-NH2 (linker 3-12 via mXylylene; reading uncertain) [3BP-4388]
[5]
  pIC50: 7.1 to 8 pic50

## {DOTA-APAc}-VYCE[dP]D[Phe(3-NHCO(CH2)3SO2NH2)]LTWSC-NH2 (linker 3-12 via mXylylene; reading uncertain) [3BP-4369]
[2]
  pIC50: > 8 pic50
[3]
  pKD: > 8 pkd
[4]
  t1/2 (half-life of the complex, SPR): > 15 min
